Measurements published in the supplement of paper PMC9112550, “Optimization of the antimicrobial peptide Bac7 by deep mutational scanning” (BMC Biology, 2022).

System: Escherichia coli TOP10
Test: shrunken log2 fold change of peptide-encoding DNA abundance (4.5 h post-induction vs induction); higher = less antimicrobial activity (less host growth inhibition)
Conditions: time post-induction: 4.5 h; library: site-saturation at positions 5, 18, 19, 20
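Note: peptides expressed intracellularly from a pBAD plasmid library in pooled LB shake-flask culture, induced with 0.3% L-arabinose, DNA abundance read by NGS, three biological replicates, DESeq2 with apeglm shrinkage.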

Row | Sequence | shrunken log2 fold change
1 | RRIRGRPPRLPRPRPRPHHRPRP | -0.00334
2 | RRIRLRPPRLPRPRPRPMPYPRP | -0.0714
3 | RRIRFRPPRLPRPRPRPNRHPRP | -0.874
4 | RRIRIRPPRLPRPRPRPGHFPRP | -0.0592
5 | RRIRTRPPRLPRPRPRPTRIPRP | -0.204
6 | RRIRARPPRLPRPRPRPPLFPRP | 0.789
7 | RRIRPRPPRLPRPRPRPENHPRP | -0.0822
8 | RRIRIRPPRLPRPRPRPNPPPRP | 0.125
9 | RRIRDRPPRLPRPRPRPEEEPRP | 0.00884
10 | RRIRKRPPRLPRPRPRPHFKPRP | -0.0252
11 | RRIRERPPRLPRPRPRPHYNPRP | -1.12
12 | RRIRFRPPRLPRPRPRPQRLPRP | 0.106
13 | RRIRKRPPRLPRPRPRPAVQPRP | 0.195
14 | RRIRQRPPRLPRPRPRPVHKPRP | 0.0383
15 | RRIRRRPPRLPRPRPRPMKPPRP | 0.0733
16 | RRIRYRPPRLPRPRPRPWTCPRP | -0.362
17 | RRIRVRPPRLPRPRPRPHGSPRP | -0.156
18 | RRIRFRPPRLPRPRPRPHMIPRP | -0.395
19 | RRIRRRPPRLPRPRPRPSNAPRP | 0.204
20 | RRIRRRPPRLPRPRPRPDDYPRP | -0.377
21 | RRIRQRPPRLPRPRPRPFQAPRP | -0.207
22 | RRIRQRPPRLPRPRPRPKRQPRP | 0.0299
23 | RRIRFRPPRLPRPRPRPNHCPRP | -0.0425
24 | RRIRYRPPRLPRPRPRPPKPPRP | 0.144
25 | RRIRARPPRLPRPRPRPRNDPRP | 0.0481
26 | RRIRHRPPRLPRPRPRPANAPRP | -0.0554

Row | Sequence | shrunken log2 fold change
27 | RRIRNRPPRLPRPRPRPPNGPRP | -0.00827
28 | RRIRKRPPRLPRPRPRPWACPRP | 0.0099
29 | RRIRWRPPRLPRPRPRPNQWPRP | 0.223
30 | RRIRERPPRLPRPRPRPLYRPRP | -0.474
31 | RRIRRRPPRLPRPRPRPTVQPRP | 0.113
32 | RRIRERPPRLPRPRPRPEIMPRP | -0.00047
33 | RRIRSRPPRLPRPRPRPCPFPRP | -0.138
34 | RRIRMRPPRLPRPRPRPGMDPRP | 0.32
35 | RRIRCRPPRLPRPRPRPMTCPRP | -0.205
36 | RRIRIRPPRLPRPRPRPDKAPRP | -0.00957
37 | RRIRTRPPRLPRPRPRPQIQPRP | -0.418
38 | RRIRHRPPRLPRPRPRPRFQPRP | 0.00482
39 | RRIRMRPPRLPRPRPRPPSRPRP | 1.01
40 | RRIRCRPPRLPRPRPRPWYEPRP | -0.135
41 | RRIRFRPPRLPRPRPRPYDHPRP | -0.0263
42 | RRIRQRPPRLPRPRPRPSKGPRP | 0.0585
43 | RRIRKRPPRLPRPRPRPGMEPRP | 0.0527
44 | RRIRERPPRLPRPRPRPTNYPRP | -0.068
45 | RRIRERPPRLPRPRPRPFHCPRP | -0.175
46 | RRIRGRPPRLPRPRPRPTCNPRP | 0.7
47 | RRIRSRPPRLPRPRPRPISPPRP | -0.402
48 | RRIRIRPPRLPRPRPRPGIYPRP | -0.585
49 | RRIRGRPPRLPRPRPRPKDLPRP | -0.0839
50 | RRIRHRPPRLPRPRPRPAQNPRP | 0.212
51 | RRIRWRPPRLPRPRPRPTKRPRP | 0.202
52 | RRIRMRPPRLPRPRPRPVLIPRP | -0.0938

Row | Sequence | shrunken log2 fold change
53 | RRIRDRPPRLPRPRPRPDDSPRP | -0.0417
54 | RRIRMRPPRLPRPRPRPRGAPRP | 1.44
55 | RRIRKRPPRLPRPRPRPNYDPRP | -0.359
56 | RRIRWRPPRLPRPRPRPTDYPRP | 0.233
57 | RRIRQRPPRLPRPRPRPQSTPRP | -0.631
58 | RRIRVRPPRLPRPRPRPAWTPRP | -0.0585
59 | RRIRDRPPRLPRPRPRPPGPPRP | 1.9
60 | RRIRSRPPRLPRPRPRPTFEPRP | 0.0262
61 | RRIRPRPPRLPRPRPRPRWYPRP | -0.0594
62 | RRIRYRPPRLPRPRPRPRHMPRP | -0.55
63 | RRIRQRPPRLPRPRPRPRSWPRP | 0.681
64 | RRIRNRPPRLPRPRPRPAIEPRP | 0.00973
65 | RRIRPRPPRLPRPRPRPFNSPRP | -0.764
66 | RRIRPRPPRLPRPRPRPMGTPRP | 0.0218
67 | RRIRGRPPRLPRPRPRPRHFPRP | 0.379
68 | RRIRMRPPRLPRPRPRPNCHPRP | 0.0305
69 | RRIRERPPRLPRPRPRPACEPRP | -0.112
70 | RRIRKRPPRLPRPRPRPKIYPRP | -0.0249
71 | RRIRPRPPRLPRPRPRPANAPRP | 0.0662
72 | RRIRHRPPRLPRPRPRPIWIPRP | 0.0409
73 | RRIRARPPRLPRPRPRPVWGPRP | 0.383
74 | RRIRQRPPRLPRPRPRPATEPRP | -0.037
75 | RRIRDRPPRLPRPRPRPVKLPRP | -0.896
76 | RRIRKRPPRLPRPRPRPWAPPRP | 0.0466
77 | RRIRYRPPRLPRPRPRPCIGPRP | -0.644
